Measured values as given in US10081665B2, “Peptides and combination of peptides for use in immunotherapy against various tumors” (immatics biotechnologies GmbH, priority 2015, dated 2018).

Molecular target: HLA-A*02:01 (Homo sapiens, UniProt P04439, D140Y/D185E/D98H/E176V/E277Q/G131W/G231S/I119V/I121R/I166T/I218V/L300P/L318F/N151K/N90K/P208A/P217A/Q86G/Q94H/R138H/R169H/T345S)
Assay: MHC binding assay (UV-ligand exchange, beta2m ELISA)
Details: binding to HLA-A*02:01, β2m ELISA
Text: Candidate peptides for T cell based therapies according to the present invention were further tested for their MHC binding capacity (affinity). The individual peptide-MHC complexes were produced by UV-ligand exchange, where a UV-sensitive peptide is cleaved upon UV-irradiation, and exchanged with the peptide of interest as analyzed. Only peptide candidates that can effectively bind and stabilize the peptide-receptive MHC molecules prevent dissociation of the MHC complexes. To determine the yield of the exchange reaction, an ELISA was performed based on the detection of the light chain (β2m) of stabilized MHC complexes. The assay was performed as generally described in Rodenko et al. (Rodenko et al., 2006).
96 well MAXISorp plates (NUNC) were coated over night with 2 ug/ml streptavidin in PBS at room temperature, washed 4× and blocked for 1 h at 37° C. in 2% BSA containing blocking buffer. Refolded HLA-A*02:01/MLA-001 monomers served as standards, covering the range of 15-500 ng/ml. Peptide-MHC monomers of the UV-exchange reaction were diluted 100 fold in blocking buffer. Samples were incubated for 1 h at 37° C., washed four times, incubated with 2 ug/ml HRP conjugated anti-82m for 1 h at 37° C., washed again and detected with TMB solution that is stopped with […]. Absorption was measured at 450 nm. Candidate peptides that show a high exchange yield (preferably higher than 50%, most preferred higher than 75%) are generally preferred for a generation and production of antibodies or fragments thereof, and/or T cell receptors or fragments thereof, as they show sufficient avidity to the MHC molecules and prevent dissociation of the MHC complexes.

Peptide exchange (MHC class I binding score, peptide exchange yield) | Substance
++ (≥20% = ++) | 216 (ALSTVTPRI; listed as Homo sapiens) [compound 216]
+++ (≥50 = +++) | 55 (HLFDKIIKI; listed as Homo sapiens) [compound 55]
++ (≥20% = ++) | 258 (QLVQRVASV; listed as Homo sapiens) [compound 258]
++ (≥20% = ++) | 281 (LLLESDPKVYSL; listed as Homo sapiens) [compound 281]
+++ (≥50 = +++) | 130 (QLYGSAITL; listed as Homo sapiens) [compound 130]
+++ (≥50 = +++) | 59 (ALADGIKSFLL; listed as Homo sapiens) [compound 59]
+ (≥10% = +) | 227 (SEMEELPSV; listed as Homo sapiens) [compound 227]
++ (≥20% = ++) | 103 (YLADTVQKL; listed as Homo sapiens) [compound 103]
++ (≥20% = ++) | 124 (ALLLRLFTI; listed as Homo sapiens) [compound 124]
+++ (≥50 = +++) | 173 (RLIDIYKNV; listed as Homo sapiens) [compound 173]
+++ (≥50 = +++) | 62 (SLVENIHVL; listed as Homo sapiens) [compound 62]
++ (≥20% = ++) | 71 (HMSGKLTNV; listed as Homo sapiens) [compound 71]
+++ (≥50 = +++) | 226 (SLAGNLQEL; listed as Homo sapiens) [compound 226]
+++ (≥50 = +++) | 145 (ALEEKLENV; listed as Homo sapiens) [compound 145]
+++ (≥50 = +++) | 191 (AAIEIFEKV; listed as Homo sapiens) [compound 191]
+++ (≥50 = +++) | 223 (ALHPVQFYL; listed as Homo sapiens) [compound 223]
+++ (≥50 = +++) | 44 (AVFNLVHVV; listed as Homo sapiens) [compound 44]
+++ (≥50 = +++) | 94 (YLDEVAFML; listed as Homo sapiens) [compound 94]
++ (≥20% = ++) | 238 (HLQEKLQSL; listed as Homo sapiens) [compound 238]
+++ (≥50 = +++) | 136 (LLWDAPAKC; listed as Homo sapiens) [compound 136]
+++ (≥50 = +++) | 214 (ALFETLIQL; listed as Homo sapiens) [compound 214]
++ (≥20% = ++) | 188 (VLGEEQEGV; listed as Homo sapiens) [compound 188]
+++ (≥50 = +++) | 10 (QLIEKNWLL; listed as Homo sapiens) [compound 10]
+++ (≥50 = +++) | 54 (YLVPGLVAA; listed as Homo sapiens) [compound 54]
+++ (≥50 = +++) | 68 (QLMNLIRSV; listed as Homo sapiens) [compound 68]
++ (≥20% = ++) | 268 (SLDKDIVAL; listed as Homo sapiens) [compound 268]

Peptide exchange (MHC class I binding score, peptide exchange yield) | Substance
+++ (≥50 = +++) | 210 (GLAGDNIYL; listed as Homo sapiens) [compound 210]
+++ (≥50 = +++) | 182 (GLQDGFQITV; listed as Homo sapiens) [compound 182]
++ (≥20% = ++) | 37 (QIVELIEKI; listed as Homo sapiens) [compound 37]
++ (≥20% = ++) | 64 (SLYAGSNNQV; listed as Homo sapiens) [compound 64]
++ (≥20% = ++) | 38 (VLQQESNFL; listed as Homo sapiens) [compound 38]
+++ (≥50 = +++) | 271 (VLIEYNFSI; listed as Homo sapiens) [compound 271]
++ (≥20% = ++) | 33 (TLDRNSLYV; listed as Homo sapiens) [compound 33]
++++ (≥75% = ++++) | 206 (GLDAFRIFL; listed as Homo sapiens) [compound 206]
+++ (≥50 = +++) | 11 (LLDPKTIFL; listed as Homo sapiens) [compound 11]
+++ (≥50 = +++) | 244 (NVAEIVIHI; listed as Homo sapiens) [compound 244]
+++ (≥50 = +++) | 239 (VIIKGLEEITV; listed as Homo sapiens) [compound 239]
+++ (≥50 = +++) | 280 (HLWGHALFL; listed as Homo sapiens) [compound 280]
++ (≥20% = ++) | 275 (AVPPPPSSV; listed as Homo sapiens) [compound 275]
+++ (≥50 = +++) | 48 (KISDFGLATV; listed as Homo sapiens) [compound 48]
+++ (≥50 = +++) | 251 (LLWGNLPEI; listed as Homo sapiens) [compound 251]
++++ (≥75% = ++++) | 178 (SLVSWQLLL; listed as Homo sapiens) [compound 178]
+++ (≥50 = +++) | 181 (LLWAPTAQA; listed as Homo sapiens) [compound 181]
++ (≥20% = ++) | 81 (ILAEEPIYI; listed as Homo sapiens) [compound 81]
+++ (≥50 = +++) | 276 (RMPTVLQCV; listed as Homo sapiens) [compound 276]
+++ (≥50 = +++) | 12 (RLLDPKTIFL; listed as Homo sapiens) [compound 12]
+++ (≥50 = +++) | 131 (SLYPHFTLL; listed as Homo sapiens) [compound 131]
+++ (≥50 = +++) | 256 (FLNDIFERI; listed as Homo sapiens) [compound 256]
+++ (≥50 = +++) | 195 (VIIQNLPAL; listed as Homo sapiens) [compound 195]
+++ (≥50 = +++) | 112 (ILAQDVAQL; listed as Homo sapiens) [compound 112]
+++ (≥50 = +++) | 150 (VLLDMVHSL; listed as Homo sapiens) [compound 150]
